Source: US20100062011A1

Assays:
[1] = target: Peptide having the amino acid sequence of the 298th to 312th of Gag protein derived from HIV-1 (HIV-1); assay: ELISA, serial 2-fold serum dilutions on coated Gag peptide; negative control serum
[2] = target: Amyloid β-peptide consisting of 42 amino acid residues (human); assay: ELISA, serial 2-fold serum dilutions on coated Aβ (SEQ ID NO:2); negative control serum
[3] = target: TetT3L, T-cell epitope peptide derived from tetanus toxoid
[4] = target: DTL, T-cell epitope peptide derived from diphtheria toxoid; assay: ELISA, serum dilutions on coated DTL peptide; control serum

Substance | antibody titer [1] | antibody titer [2] | antibody titer [3] | antibody titer [4]
Antiserum from BALB/c mice not vaccinated (negative control, Experiment 1) (antibody) | 5.7 | 9.2 | – | –
Serum of BALB/c mice given neither peptide nor binary mixed vaccine (Experiment 2) (antibody) | – | – | 3 | 3
